According to PMC4880302:

Columns and labels:
[1] = target: wild-type HMPV F protein (soluble, secreted, with C-terminal GCNt trimerization domain) (human metapneumovirus, B2 strain); assay: SEC; gel filtration of the purified F proteins alone (Superdex-200, 25 mM sodium phosphate pH 7.4, 100 mM NaCl)
[2] = target: DS-7 Fab (anti-HMPV F neutralizing antibody); assay: SPR; as a1 (ProteOn, Fab immobilised, F injected, bivalent analyte model), but HMPV F proteins heated to 50°C for 30 minutes (post-fusion form)
[3] = target: wild-type HMPV F protein (soluble, secreted, with C-terminal GCNt trimerization domain) (human metapneumovirus, B2 strain); assay: negative-stain EM; purified F proteins on carbon-coated copper grids, 2% uranyl formate; unheated and heated to 50°C
[4] = target: DS-7 Fab (anti-HMPV F neutralizing antibody); assay: SPR; Bio-Rad ProteOn XPR36; biotinylated antibodies (Fabs) immobilised on NLC chip at 80-300 RU; unheated HMPV F injected at 500, 166.7, 55.5, 18.5, 6.2, 0 nM, 100 ul/min; 20 mM NaPO4 pH 7.4, 100 mM NaCl, 10 mM imidazole, 0.005% Tween 20; bivalent analyte model
[5] = target: wild-type HMPV F protein (soluble, secreted, with C-terminal GCNt trimerization domain) (human metapneumovirus, B2 strain); assay: SPR; BiOptix 404pi; F proteins captured on NiHC1000m chip through their C-terminal His tag to 120 RU; Fab injected at 300 to 0.14 nM, 100 ul/min; 10 mM HEPES pH 7.2, 150 mM NaCl, 0.005% Tween 20, 50 uM EDTA; simple Langmuir model

| Substance | stoichiometry N [1] | Kd [2] | koff [2] | kon [2] | t1/2 [2] | stoichiometry N [3] | Kd [4] | koff [4] | kon [4] | t1/2 [4] | Kd [5] | koff [5] | kon [5] | t1/2 [5] |
| --- | --- | --- | --- | --- | --- | --- | --- | --- | --- | --- | --- | --- | --- | --- |
| wild-type HMPV F protein (soluble, secreted, with C-terminal GCNt trimerization domain) (natural protein) | 3 | 2.8 nM | 0.000258 s⁻¹ | 95700 M⁻¹ s⁻¹ | 45 min | 3 | 0.83 nM | 0.00012 s⁻¹ | 147000 M⁻¹ s⁻¹ | 96 min |  |  |  |  |
| DS-7 Fab (anti-HMPV F neutralizing antibody) |  |  |  |  |  |  |  |  |  |  | 0.3 nM | 0.000197 s⁻¹ | 684000 M⁻¹ s⁻¹ | 59 min |
